Data published in publication PMC2563799.
Like-named read-outs stand apart in the source and are kept apart here. One block for each binder: values may come before it.

Experiments:
Assay in all cases: thiol-disulfide exchange
Ibα-TM (human) [1] = target: Ibα-TM (human)
Ibα-TM (human) [2] = target: Ibα-TM (human); remark: listed apart in the source
Ibα-TM (human) [3] = target: Ibα-TM (human); remark: listed apart in the source
[4] = target: (Ibβ-TM)-SS-(Ibα-TM)-SS-(Ibβ-TM) peptide complex (human)
[5] = target: (Ibβ-TM)-SS-(Ibα-TM)-SS-(Ibβ-TM) peptide complex (human); remark: listed apart in the source
[6] = target: (Ibβ-TM)-SS-(Ibα-TM)-SS-(Ibβ-TM) peptide complex (human); remark: listed apart in the source

- αβ2 production (% of Ibβ-TM) (Ibα-TM (human) [1]): 27.7 % of Ibβ-TM
- αβ2 production (% of Ibβ-TM) (Ibα-TM (human) [2]): 13.5 % of Ibβ-TM
- αβ2 production (% of Ibβ-TM) (Ibα-TM (human) [3]): 20.5 % of Ibβ-TM
B1: Ibβ-TM (peptide)
chain: GSGGGLCWGALAAQLALLGLGLLHALLLVLLLSRLRRLRARARARAAARLSLTDPLVAERAGTDES

- αβ2 production with IX-TM (% of Ibβ-TM) [4]: 32.8 % of Ibβ-TM
- αβ2 production with IX-TM (% of Ibβ-TM) [5]: 41.2 % of Ibβ-TM
- αβ2 production with IX-TM (% of Ibβ-TM) [6]: 29.4 % of Ibβ-TM
Binder: GSVRPGVLWDVALVAVAALGLALLAGLLNATTEALD [IX-TM]
